The text below walks through data of patent publication US20250257130A1 (NONA BIOSCIENCES SUZHOU, published 2025).

In test [1] the target is T1, hu-ROR2-ECD-his (Acrobiosystems RO2-H52E5) (human, UniProt Q01974 34-403).
T1 construct: extracellular domain; bought protein; also called Human ROR2 his-tagged protein; Human ROR2, His Tag
Briefly: ELISA, plate coated with hu-ROR2-his at 1 µg/mL. The protocol:
1 μg/mL hu-ROR2-ECD-his (Acrobiocystems, RO2-H52E5) was added to the 96-well plate, 100 μL each well, incubated at 4° C. overnight, washing the plates with 1×PBST 3 times, 300 ul/well, blocking the plates with 2% BSA in 1×PBST, 200 ul/well at 37° C. for 1 hour, anti-ROR1 antibodies were serially diluted in staining buffer (PBS containing 2% BSA). Antibody solution was added to the plate and incubates at 37° C. for 1 hour, washing the plates with 1×PBST 3 times, 300 ul/well, adding secondary antibody 100 ul/well and incubate at 37° C. for 1 hour, washing the plates with 1×PBST 3 times, 300 ul/well and then add 100 ul/well TMB for about 5 min, stop the reaction by adding 100 ul/well 2M H₂SO₄, read the plates with Molecular device spectra max plus384 at 450 nm and 570 nm.
(In general: In an ELISA, binding on a coated surface is turned into a signal by an enzyme label.)

Test [2] deals with T2, Human ROR1-ECD-his (Acro Biosystems RO1-H522y) (human, UniProt Q01973 30-406).
T2 construct: extracellular domain; bought protein; also called hROR1-ECD-his; hu-ROR1-ECD-his
T2 sequence (Q01973 30-406): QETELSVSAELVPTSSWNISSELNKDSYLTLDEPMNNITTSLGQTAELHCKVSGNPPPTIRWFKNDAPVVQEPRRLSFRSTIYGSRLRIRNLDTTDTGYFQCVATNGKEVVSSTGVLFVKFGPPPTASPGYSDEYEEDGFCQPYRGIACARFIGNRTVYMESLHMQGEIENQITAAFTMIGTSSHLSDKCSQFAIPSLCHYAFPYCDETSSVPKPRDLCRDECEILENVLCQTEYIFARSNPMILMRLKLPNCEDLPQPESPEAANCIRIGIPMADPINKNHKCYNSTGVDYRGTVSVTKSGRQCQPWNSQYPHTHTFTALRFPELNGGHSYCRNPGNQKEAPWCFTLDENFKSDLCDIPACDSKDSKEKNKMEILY
Put plainly: ELISA, coated hu-ROR1-ECD-his. The protocol: Binding of recombinant anti-ROR1 antibodies to hu-ROR1-ECD-his was tested by ELISA. In brief, 1 μg/mL hu-ROR1-ECD-his was added to the 96-well plate, 100 μL each well, incubated at 4° C. overnight, washing the plates with 1×PBST 3 times, 300 ul/well, blocking the plates with 2% BSA in 1×PBST, 200 ul/well at 37° C. for 1 hour, anti-ROR1 antibodies were serially diluted in staining buffer (PBS containing 2% BSA). Antibody solution was added to the plate and incubates at 37° C. for 1 hour, washing the plates with 1×PBST 3 times, 300 ul/well, adding secondary antibody 100 ul/well and incubate at 37° C. for 1 hour, washing the plates with 1×PBST 3 times, 300 ul/well and then add 100 ul/well TMB for about 5 min, stop the reaction by adding 100 ul/well 2M H₂SO₄, read the plates with Molecular device spectra max plus384 at 450 nm and 570 nm.

Test [3] has as its target T3, cynomolgus ROR1 on CHO-K1-cynoROR1 cells (cynomolgus monkey, UniProt A0A2K5WTX7 30-937).
T3 construct: whole, on cells
Briefly: flow cytometry, CHO-K1-cynoROR1 cells. As for the experimental part:
(§1) In brief, anti-ROR1 antibodies were serially diluted in staining buffer (PBS containing 2% FBS). Antibody solution was incubated with 1×10⁵ cells at 4° C. for 1 hour. […] After 1-hour incubation at 4° C., cells were washed twice with staining buffer and subjected to flow cytometry. PR000374 (Bench marker 1) and non-relevant IgG isotype control (Crownbio) were used as positive and negative controls, respectively.
In general terms: A flow cytometer gives signals particle by particle.

For test [4], the target named is T2, Human ROR1-ECD-his (Acro Biosystems …). Put plainly: BLI, ROR1-His on HIS1K sensor, antibody in solution. As for the experimental part:
In the example, binding kinetics of anti-ROR1 antibodies to soluble ROR1 protein were analyzed by using Bio-Layer Interferometry (BLI) analysis on Fortebio Octet Red384 instrument (Fortebio).
In BLI analysis, recombinant anti-ROR1 antibodies was serially diluted with 10× kinetics buffer (Fortebio). Human ROR1-His proteins were diluted to 20 nM. Then the diluted antibodies, ROR1 proteins and regeneration buffer (10 mM glycine HCl pH 1.5) were added to 96-well plates (Greiner). Rate constants for association and dissociation were measured using HIS1K sensor (Fortebio). The sensor surface was regenerated after each binding experiment with regeneration buffer. The traces were processed using Octet Data Analysis Software (version 11.0, Pall ForteBio, CA, USA).
In general terms: BLI is a label-free optical method that tracks binding on a fibre tip over time.

Test [5] deals with T4, human ROR1 on cells (HEK293T-hROR1, PANC-1, A549) (human, UniProt Q01973 30-937).
T4 construct: whole, on cells; one molecule for the three cell lines; also called huROR1; cell surface ROR1
T4 sequence (Q01973 30-937): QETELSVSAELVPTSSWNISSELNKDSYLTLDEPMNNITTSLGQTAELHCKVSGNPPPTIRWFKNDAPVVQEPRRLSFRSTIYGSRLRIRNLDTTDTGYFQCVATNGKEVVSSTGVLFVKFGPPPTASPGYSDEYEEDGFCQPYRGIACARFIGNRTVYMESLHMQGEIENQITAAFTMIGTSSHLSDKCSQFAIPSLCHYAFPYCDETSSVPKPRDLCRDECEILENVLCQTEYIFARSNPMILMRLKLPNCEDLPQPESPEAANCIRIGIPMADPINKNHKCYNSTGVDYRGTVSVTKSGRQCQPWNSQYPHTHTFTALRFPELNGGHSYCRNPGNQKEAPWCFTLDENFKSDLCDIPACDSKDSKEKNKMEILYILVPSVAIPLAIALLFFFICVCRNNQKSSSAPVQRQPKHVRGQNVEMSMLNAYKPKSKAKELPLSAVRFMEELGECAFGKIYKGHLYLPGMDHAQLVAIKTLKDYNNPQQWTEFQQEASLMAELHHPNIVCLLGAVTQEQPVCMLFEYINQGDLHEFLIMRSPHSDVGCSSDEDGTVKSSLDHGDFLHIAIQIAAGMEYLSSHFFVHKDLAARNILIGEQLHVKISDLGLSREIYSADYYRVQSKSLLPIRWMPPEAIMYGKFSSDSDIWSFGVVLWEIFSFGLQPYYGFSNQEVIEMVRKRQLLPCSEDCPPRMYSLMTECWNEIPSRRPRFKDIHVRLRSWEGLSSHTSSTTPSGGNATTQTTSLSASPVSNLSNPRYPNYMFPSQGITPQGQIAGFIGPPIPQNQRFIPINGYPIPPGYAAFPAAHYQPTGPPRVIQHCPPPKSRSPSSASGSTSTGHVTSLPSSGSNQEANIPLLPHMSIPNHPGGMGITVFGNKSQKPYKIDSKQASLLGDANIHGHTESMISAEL
Briefly: flow cytometry, HEK293T-hROR1 cells; HEK293T-hROR1 cells (ROR1 overexpressed), FACS: binds. The protocol: as §1

T1 sequence (Q01974 34-403): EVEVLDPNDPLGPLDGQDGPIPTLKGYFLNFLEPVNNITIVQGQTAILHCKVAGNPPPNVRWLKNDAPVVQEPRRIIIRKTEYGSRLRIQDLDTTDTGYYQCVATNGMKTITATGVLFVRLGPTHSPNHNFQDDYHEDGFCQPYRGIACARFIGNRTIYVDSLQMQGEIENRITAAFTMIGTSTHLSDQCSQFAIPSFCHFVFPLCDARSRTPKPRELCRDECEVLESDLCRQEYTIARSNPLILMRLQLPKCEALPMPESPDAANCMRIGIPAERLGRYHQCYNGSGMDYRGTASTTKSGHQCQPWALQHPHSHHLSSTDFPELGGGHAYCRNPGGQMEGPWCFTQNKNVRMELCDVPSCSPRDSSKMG

B1: PR303189 (antibody, human IgG1, V domains shown)
VH: EVQLVESGGGLVKPGGSLRLSCAASGFNLSDSYMSWIRQAPGKGLEWVSCISSSGSTIYYADSVKGRFTVSRDNAKNSLYLQMNHLRAEDTALYYCARDCVIGIRDDSDIWGQGTMVTVSS
notes: HCAb (heavy chain-only, human IgG1 Fc), no light chain
The EC50 is the concentration at which the effect is half-maximal. The Kd is the constant that tells how readily two partners part at equilibrium. As usually defined, the koff is a measure of how fast the partners let go of each other. The kon is a measure of how fast the partners come together. A higher kon goes with fast association. Take B1: the binding result in test [1] is “no binding (tested: about 15 µg/ml)”. The EC50 in test [2] came out at 0.002 µg/mL. In addition, in test [3], the concentration giving a half-maximal response (EC50) was determined as 7.53 µg/mL and the “MAX(MFI)” value came to 5.3e+06 MFI. Also, in test [4], the Kd came to 0.623 nM, the koff is 0.00403 s⁻¹ and the kon was determined as 6.46e+06 M⁻¹ s⁻¹. The concentration for a half-maximal effect (EC50) in test [5] stood at 0.085 µg/mL.
